In patent publication US20230220042A1 (SHANGHAI JIAO TONG UNIVERSITY SCHOOL OF MEDICINE, published 2023):

T1: FcγRIIB (human, UniProt P31994 43-217, biotin-labeled)
T1 construct: extracellular domain; Bought protein; also called CD32b
T1 sequence (looked up): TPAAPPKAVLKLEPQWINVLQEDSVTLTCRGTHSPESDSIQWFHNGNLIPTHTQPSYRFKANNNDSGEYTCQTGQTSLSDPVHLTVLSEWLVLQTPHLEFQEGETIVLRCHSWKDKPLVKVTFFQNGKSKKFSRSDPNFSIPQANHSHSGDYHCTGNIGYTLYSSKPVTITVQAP

T2: FcγRIIA^131H (human, UniProt P12318 34-217, biotin-labeled)
T2 construct: extracellular domain; Bought protein; also called RIIAH
T2 sequence (looked up): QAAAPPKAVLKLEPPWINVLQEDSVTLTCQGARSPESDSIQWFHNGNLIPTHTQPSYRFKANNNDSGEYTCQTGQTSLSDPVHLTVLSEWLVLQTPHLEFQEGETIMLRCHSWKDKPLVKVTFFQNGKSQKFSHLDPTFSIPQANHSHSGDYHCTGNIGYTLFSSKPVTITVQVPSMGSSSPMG


Tests used:
FcγRIIA^131R (human) = FcγRIIA^131R (human) (UniProt P12318); assay: ELISA, coated antibody, biotin-FcγR;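 for Absorbance value: antibody coated at 2 µg/mL at 100 µL per well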
FcγRIIB [1] = target: T1, FcγRIIB; assay: ELISA; relative affinity to FcγRIIB over that to FcγRIIA131R
FcγRIIB [2] = target: T1, FcγRIIB; assay: ELISA, coated antibody, biotin-FcγR;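 for Absorbance value: antibody coated at 2 µg/mL at 100 µL per well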
FcγRI = target: T3, FcγRI (human, UniProt P12314 16-292, biotin-labeled); assay: ELISA, coated antibody, biotin-FcγR;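 for Absorbance value: antibody coated at 2 µg/mL at 100 µL per well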
T3 construct: extracellular domain; Bought protein; also called CD64
T3 sequence (P12314 16-292): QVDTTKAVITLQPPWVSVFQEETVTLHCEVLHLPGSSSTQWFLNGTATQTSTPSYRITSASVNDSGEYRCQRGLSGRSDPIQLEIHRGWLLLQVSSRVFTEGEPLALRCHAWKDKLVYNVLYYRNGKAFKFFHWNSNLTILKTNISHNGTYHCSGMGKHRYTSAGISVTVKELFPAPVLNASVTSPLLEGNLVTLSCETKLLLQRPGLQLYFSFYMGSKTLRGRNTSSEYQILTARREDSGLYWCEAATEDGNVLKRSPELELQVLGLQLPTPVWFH

FcγRIIIA^158V = target: T4, FcγRIIIA^158V (human, UniProt P08637 17-208, biotin-labeled); assay: ELISA, coated antibody, biotin-FcγR;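 for Absorbance value: antibody coated at 2 µg/mL at 100 µL per well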
T4 construct: extracellular domain; Bought protein; also called RIIIAV; CD16a 158V
T4 sequence (P08637 17-208 F176V): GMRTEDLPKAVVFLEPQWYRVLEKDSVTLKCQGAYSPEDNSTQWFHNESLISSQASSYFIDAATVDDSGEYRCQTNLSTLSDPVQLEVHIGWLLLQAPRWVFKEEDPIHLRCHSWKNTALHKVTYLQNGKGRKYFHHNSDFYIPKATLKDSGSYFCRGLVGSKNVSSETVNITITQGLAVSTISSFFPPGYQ

FcγRIIIA^158F = target: T5, FcγRIIIA^158F (human, UniProt P08637 17-208, biotin-labeled); assay: ELISA, coated antibody, biotin-FcγR;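 for Absorbance value: antibody coated at 2 µg/mL at 100 µL per well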
T5 construct: extracellular domain; Bought protein; also called RIIIAF
T5 sequence (P08637 17-208): as the sequence (P08637 17-208 F176V) above, with V160F counted along it

FcγRIIA^131H = target: T2, FcγRIIA^131H; assay: ELISA, coated antibody, biotin-FcγR;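 for Absorbance value: antibody coated at 2 µg/mL at 100 µL per well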

| Absorbance value (FcγRIIA^131R (human)) [A650] | RIIB/RIIAR (FcγRIIB [1]) [ratio] | Relative binding affinity RIIAR/G1 (FcγRIIA^131R (human)) | Absorbance value (FcγRIIB [2]) [A650] | Increased factor of RIIB binding compared with wild-type IgG2 (FcγRIIB [2]) [fold] | Relative binding affinity RIIB/G1 (FcγRIIB [2]) [ratio] | Absorbance value (FcγRI) [A650] | Relative binding affinity RI/G1 (FcγRI) [ratio] | Absorbance value (FcγRIIIA^158V) [A650] | Relative binding affinity RIIIAV/G1 (FcγRIIIA^158V) [ratio] | Absorbance value (FcγRIIIA^158F) [A650] | Relative binding affinity RIIIAF/G1 (FcγRIIIA^158F) [ratio] | Absorbance value (FcγRIIA^131H) [A650] | Relative binding affinity RIIAH/G1 (FcγRIIA^131H) [ratio] | Molecule |
| --- | --- | --- | --- | --- | --- | --- | --- | --- | --- | --- | --- | --- | --- | --- |
| 0.04 |  |  |  |  |  |  |  |  |  |  |  |  |  | IgG2 N297A (antibody) |
| 0.08 | 0.34 | 0.29 | 0.08 | 1 | 0.1 | 0.08 | 0.03 | 0.05 | 0.06 | 0.06 | 0.3 | 0.49 | 0.85 | wild-type IgG2 anti-human OX40 antibody (antibody, also called WTIgG2) heavy: QVQLQESGPGLVKPSGTLSLTCAVSGGSISSSIWWSWVRQPPGKGLEWIGEIHHSGNTNCNPSLKSRVTISIDKSKNQFSLKLTSVTAADTAVYYCARAGTGTTLDYWGQGTLVTVSSASTKGPSVFPLAPCSRSTSESTAALGCLVKDYFPEPVTVSWNSGALTSGVHTFPAVLQSSGLYSLSSVVTVPSSNFGTQTYTCNVDHKPSNTKVDKTVERKCCVECPPCPAPPVAGPSVFLFPPKPKDTLMISRTPEVTCVVVDVSHEDPEVQFNWYVDGVEVHNAKTKPREEQFNSTFRVVSVLTVVHQDWLNGKEYKCKVSNKGLPAPIEKTISKTKGQPREPQVYTLPPSREEMTKNQVSLTCLVKGFYPSDIAVEWESNGQPENNYKTTPPMLDSDGSFFLYSKLTVDKSRWQQGNVFSCSVMHEALHNHYTQKSLSLSPGK light: EIVLTQSPGTLSLSPGERATLSCRASQSVSGDYLAWYQQKLGQAPRLLIYGASIRATGIPDRFSGSGSGTDFTLTISKLEPEDFAVYYCQQYGSSPLTFGGGTKVEIKRTVAAPSVFIFPPSDEQLKSGTASVVCLLNNFYPREAKVQWKVDNALQSGNSQESVTEQDSKDSTYSLSSTLTLSKADYEKHKVYACEVTHQGLSSPVTKSFNRGEC |
| 0.08 | 2.24 | 0.32 | 0.55 | 7.28 | 0.72 | 0.19 | 0.07 | 0.09 | 0.09 | 0.08 | 0.41 | 0.06 | 0.11 | anti-human OX40 IgG2 antibody Mut_26 (V234Q/A235G/P238L/S239V/S267E/H268S/E269D) (antibody, Substitutions in Eu numbering; entries include an unstated signal peptide) heavy: QVQLQESGPGLVKPSGTLSLTCAVSGGSISSSIWWSWVRQPPGKGLEWIGEIHHSGNTNCNPSLKSRVTISIDKSKNQFSLKLTSVTAADTAVYYCARAGTGTTLDYWGQGTLVTVSSASTKGPSVFPLAPCSRSTSESTAALGCLVKDYFPEPVTVSWNSGALTSGVHTFPAVLQSSGLYSLSSVVTVPSSNFGTQTYTCNVDHKPSNTKVDKTVERKCCVECPPCPAPPQGGLVVFLFPPKPKDTLMISRTPEVTCVVVDVESDDPEVQFNWYVDGVEVHNAKTKPREEQFNSTFRVVSVLTVVHQDWLNGKEYKCKVSNKGLPAPIEKTISKTKGQPREPQVYTLPPSREEMTKNQVSLTCLVKGFYPSDIAVEWESNGQPENNYKTTPPMLDSDGSFFLYSKLTVDKSRWQQGNVFSCSVMHEALHNHYTQKSLSLSPGK light: EIVLTQSPGTLSLSPGERATLSCRASQSVSGDYLAWYQQKLGQAPRLLIYGASIRATGIPDRFSGSGSGTDFTLTISKLEPEDFAVYYCQQYGSSPLTFGGGTKVEIKRTVAAPSVFIFPPSDEQLKSGTASVVCLLNNFYPREAKVQWKVDNALQSGNSQESVTEQDSKDSTYSLSSTLTLSKADYEKHKVYACEVTHQGLSSPVTKSFNRGEC |
